Test results from the supplement of paper PMC10126150.
± gives the standard deviation of the averaged measurements.

The sequences below were run on ATP (assay: switch fluorescence ratio, 500 uM ATP over buffer (Cy3 cluster intensity, sum of 5 cycles each) (fold (ratio)); higher = stronger signal-on switching upon ATP binding; sequences stand for … in TCGTCGGCAGCGTCAGATGTGTATAAGAGACAGTTTTTTTTTTTTTTTTTTTTTTTTT…TC). Details: aptamer strand: ATP DNA aptamer (quencher-CACCTGGGGGAGTATTGCGGAGGAAGG + anchor), 100 nM annealed; ATP concentration: 500 uM.
In short: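 Per cluster, summed Cy3 intensity from the target cycles was divided by that from the buffer cycles to give the fluorescence ratio, then averaged per switch-domain sequence. Clusters outside 100-1000 RFU were excluded. The Cy3-labelled switching-strand clusters, on a modified Illumina MiSeq flow-cell, were annealed to 100 nM quencher-labelled ATP aptamer and imaged in selection buffer, then after 15 min with 500 uM ATP at 22 °C, for five cycles with NaOH stripping and re-annealing between them.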
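Note: ATP exposure 15 min at 22 °C before imaging.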

Sequence	switch fluorescence ratio
GATTGACAGG	1.04 ± 0.03
GATTGACCAT	1.041 ± 0.0099
GATTGAGCGT	0.996 ± 0.017
GATTGATTGC	1 ± 0.033
GATTGATTGT	0.9867 ± 0.0061
GATTGCAGAT	1.02 ± 0.034
GATTGGAAAG	1.0069 ± 0.00042
GATTGGAGTC	1.008 ± 0.0045
GATTGGCCCG	1.11 ± 0.13
GATTGGGGAT	0.992 ± 0.02
GATTGGGGGA	0.984 ± 0.036
GATTGGGTCA	1 ± 0.012
GATTGGGTGG	1 ± 0.017
GATTGGGTTG	0.981 ± 0.045
GATTGGTGTT	0.956 ± 0.025
GATTGTAATC	0.99 ± 0.0063
GATTGTATGG	1.02 ± 0.025
GATTGTCCTT	0.9956 ± 0.0048
GATTGTGGAG	1.01 ± 0.018
GATTGTTTTT	0.997 ± 0.044
GATTTAACGA	0.985 ± 0.014
GATTTAAGAT	1.01 ± 0.029
GATTTAATGG	1 ± 0.021
GATTTAATTT	1.001 ± 0.0063
GATTTACCAG	1.03 ± 0.027

Sequence	switch fluorescence ratio
GATTTAGTTA	1.01 ± 0.027
GATTTATCGC	1 ± 0.046
GATTTATGAG	0.9668 ± 0.0067
GATTTATTTT	0.994 ± 0.017
GATTTCAAAT	1.02 ± 0.023
GATTTCATTT	1.01 ± 0.04
GATTTGAAGG	1.01 ± 0.035
GATTTGACG	1.04 ± 0.056
GATTTGATGT	1 ± 0.03
GATTTGATTG	1.002 ± 0.0033
GATTTGCTAG	0.997 ± 0.023
GATTTTCACT	0.9903 ± 0.0092
GATTTTCCTT	1.01 ± 0.027
GATTTTGAGC	0.9986 ± 0.0048
GATTTTGCAT	1 ± 0.028
GATTTTGGCT	0.9969 ± 0.0019
GATTTTTACT	1.02 ± 0.024
GATTTTTATA	0.969 ± 0.028
GATTTTTATG	0.977 ± 0.011
GATTTTTGAG	0.99 ± 0.017
GATTTTTGGA	0.968 ± 0.03
GATTTTTGGG	1.01 ± 0.047
GATTTTTGTT	1.01 ± 0.034
GATTTTTTGA	1.01 ± 0.011
GCAAAAAAAT	1.04 ± 0.025

Sequence	switch fluorescence ratio
GCAAAAATGT	1 ± 0.029
GCAAAAGGGG	0.977 ± 0.027
GCAAAGAGGG	1.04 ± 0.012
GCAAAGTCTG	0.984 ± 0.046
GCAAATAAGT	1.02 ± 0.038
GCAAATATTG	1.01 ± 0.018
GCAAGACAAG	1.05 ± 0.036
GCAAGATTTC	1.04 ± 0.013
GCAAGGGGTG	1.1 ± 0.065
GCAAGTTCAA	1.01 ± 0.031
GCAATAATTT	2.83 ± 0.52
GCAATAGACT	1.51 ± 0.04
GCAATATGGG	1.84 ± 0.2
GCAATCAATA	1.02 ± 0.015
GCAATCAGAA	1.04 ± 0.035
GCAATCGAGT	1.6 ± 0.04
GCAATCTGGT	1.11 ± 0.026
GCAATTCCCG	2.17 ± 0.049
GCACCAAAAG	0.973 ± 0.028
GCACCAAGAA	1.03 ± 0.014
GCACGCGGCT	1.02 ± 0.019
GCACGGGCAT	1.01 ± 0.035
GCACGGGGAT	1.02 ± 0.033
GCACGTCGAA	1.08 ± 0.032
GCACTAGGGG	1.09 ± 0.015

Sequence	switch fluorescence ratio
GCACTATAGG	0.999 ± 0.011
GCACTTTTTG	0.99 ± 0.049
GCAGAAGTAC	2.37 ± 0.075
GCAGAGGAAC	1.03 ± 0.012
GCAGAGTGGA	0.9976 ± 0.003
GCAGATCGGT	0.967 ± 0.019
GCAGATCGTG	1.02 ± 0.026
GCAGATTACG	1.01 ± 0.058
GCAGCAAGCG	1.64 ± 0.028
GCAGCAGACG	1.2 ± 0.076
GCAGCAGCTT	1.01 ± 0.039
GCAGCCAAGC	1.14 ± 0.028
GCAGCTAGTA	1.044 ± 0.0045
GCAGCTGGTA	1.05 ± 0.024
GCAGCTGTAT	1.08 ± 0.014
GCAGGAATGT	1.0036 ± 0.00065
GCAGGAGCGG	0.998 ± 0.0094
GCAGGCGGGC	0.991 ± 0.014
GCAGGCGTCA	1.04 ± 0.015
GCAGGCGTTG	0.995 ± 0.013
GCAGGGAGTT	0.966 ± 0.029
GCAGGGGGAG	1.02 ± 0.0081
GCAGGGGTTA	1.28 ± 0.43
GCAGGGGTTG	1.03 ± 0.071
GCAGGTATTG	1.02 ± 0.012
